Experimental findings from patent publication US20110123532A1 (ONCOMED PHARMACEUTICALS, published 2011) are described below.

The target in assay [1] is T1, human VEGF (human, UniProt P15692-4 27-191).
T1 construct: Immobilised on a CM5 chip for Biacore; the same name is used for the rhVEGF of the HUVEC assay; also called hVEGF; rhVEGF
Nature of the assay: Biacore dual targeting assay, high density VEGF surface, antibody first, then DLL4-Fc. For orientation: In SPR one partner is held on a chip, and binding of the other changes the refractive index at the surface.
Target sequence in this assay (P15692 other isoform, or with tags, fused parts or gaps limits assumed): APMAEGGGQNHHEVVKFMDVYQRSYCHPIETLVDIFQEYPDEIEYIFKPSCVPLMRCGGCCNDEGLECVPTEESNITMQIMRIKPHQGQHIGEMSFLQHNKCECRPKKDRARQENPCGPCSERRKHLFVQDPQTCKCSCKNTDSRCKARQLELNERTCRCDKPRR

For assay [2], the target named is T2, full length human DLL4 on transfected human 293 HEK cells (human, UniProt Q9NR61 27-685).
T2 construct: whole, on cells; also called hDLL4 transfected cells; human DLL4 transfected cells
Nature of the assay: flow cytometry on human 293 HEK cells transfected with full length human DLL4 and GFP; goat anti-human IgG H/L-PE. (In general: In flow cytometry, cells or beads pass a laser one at a time.)

The target in assay [3] is T1, human VEGF. Nature of the assay: SPR (Biacore), VEGF surface.
For assay [4], the target named is T1, human VEGF. Nature of the assay: SPR (Biacore 2000), recombinant VEGF immobilised on CM5, IgG injected. The protocol: (§1) IgG affinities were determined using a Biacore 2000 instrument. Briefly, recombinant proteins were immobilized on a CM5 chip using standard amine based chemistry (NHS/EDC). For each Fab and IgG, different concentrations (100-1 nM) were injected over the surface and kinetic data were collected over time. The data was fit using the simultaneous global fit equation to yield affinity constants (KD) for each Fab and IgG.

In assay [5] the target is T3, mouse VEGF (mouse, UniProt Q00731-2 27-190, limits assumed).
T3 construct: also called mVEGF
T3 sequence (looked up): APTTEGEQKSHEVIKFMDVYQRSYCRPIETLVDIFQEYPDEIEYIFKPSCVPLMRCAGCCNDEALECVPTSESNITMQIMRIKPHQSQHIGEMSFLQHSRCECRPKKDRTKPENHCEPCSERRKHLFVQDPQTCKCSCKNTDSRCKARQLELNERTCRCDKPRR
The assay is described as above. The protocol: as §1

Assay [6] concerns the target T1, human VEGF. The assay can be described thus: SPR (Biacore), VEGF surface; reference 219R0202 IgG.
Assay [7] has as its target T2, full length human DLL4 on transfected …. The assay can be described thus: flow cytometry on HEK 293 cells transfected with human DLL4; reference 21M18. The protocol: Briefly, Human 293 HEK cells were transfected using Fugene 6 transfection reagent as recommended by the manufacturer (Roche Inc.). Cells were transfected with cDNA expression vector encoding full length human DLL4, as well as a second vector encoding green fluorescent protein, pcDNA-GFP, to mark the transiently transfected cells. […] Cells were then rinsed twice with Staining Medium (HBSS with 2% FCS) and incubated with fluorescent secondary antibody, goat-anti-human IgG H/L-phycoerythrin (PE), at 1:200 dilution in PBS for 1 hour. Cells were then analyzed by flow cytometry using a FACS Caliber instrument (BD Bioscience). Specific SBGSP binding was assessed by determining the presence of cells positive for GFP signal and PE signal.

For assay [8] the target is unchanged. Nature of the assay: flow cytometry on human 293 HEK cells transfected with full length human DLL4 and GFP; goat anti-human IgG H/L-PE; MFI against log(nM), non-linear fit.
Assay [9] concerns the target T1, human VEGF. The assay can be described thus: SPR (Biacore), VEGF surface; reference 219R0302 IgG.
Target sequence in this assay (P15692 other isoform, or with tags, fused parts or gaps limits assumed): as the sequence (P15692 other isoform, or with tags, fused parts or gaps limits assumed) above

B1: Homo 13A (219R02) (antibody, human IgG2, kappa, V domains shown)
VH: QVQLKQSGAELVKPGASVKLSCKASGYTFTNYWMHWVKLRPGQGFEWIGDINPSNGGTSYNEKFKRKATLTVDKSSSTAYMQLSSLTSEDSAVYYCTIHYYDNSYAMDYWGQGTSVTVSS
VL: DIVMTQSPDSLAVSLGERATISCRASESVDNYGISFMKWFQQKPGQPPKLLIYAASNQGSGVPDRFSGSGSGTDFTLTISSLQAEDVAVYYCQQSKEVPWTFGGGTKVEIKR
notes: also called 219R02 13A Homo; 219R0202 HC (with 13A mutation) expressed only with 21M18 LC
With B1, the values for the binding result in assay [1] and in assay [2] were “binds” and “no binding (tested: log(nM) about 1.8 (about 60 nM))”, respectively.

B2: 219R0302 IgG (anti-VEGF antibody reformatted to IgG2) (antibody, V domains shown)
VH: QVQLKQSGAELVKPGASVKLSCKASGYTFTNYWMHWVKLRPGQGFEWIGDINPSNGGTSYNEKFKRKATLTVDKSSSTAYMQLSSLTSEDSAVYYCTIHYYDNSYAMDYWGQGTSVTVSS
VL: DIQMTQSPSSLSASVGDRVTITCQASQDISNYVNWYQQKPGKAPKLLIYDASNLQTGVPSRFSGRGSGTHFTFTISSLQPEDLATYYCQQYDDLPPTFGRGTKLEIKR
notes: Mouse VH from immunised mice paired with a human kappa light chain from a phagemid library; also called 21R0302
What is called Kd is the free concentration of one partner at which half of the binding sites on the other are occupied at equilibrium, for simple one-to-one binding. With B2, the figures for the Kd in [3], in assay [4] and in assay [5] were 2.1 nM, 2.1 nM and 21 nM, respectively.

B3: 219R0202 IgG (anti-VEGF antibody reformatted to IgG2) (antibody, V domains shown)
VH: QVQLKQSGAELVKPGASVKLSCKASGYTFTNYWMHWVKLRPGQGFEWIGDINPSNGGTSYNEKFKRKATLTVDKSSSTAYMQLSSLTSEDSAVYYCTIHYYDNSYAMDYWGQGTSVTVSS
VL: DIQLTQSPSSLSASVGDRVTITCRASQGINNHLAWYQQKPGKVPKSLIYAASNLHSGVPSKFSGSGSGTHFTLIISSLQPEDIATYYCQQYDNLPLTFGGGTKVEIKR
notes: Light chain variant of 219R0302 with the same heavy chain
B3: the Kd stood at 1.5 nM in [3], 1.5 nM in [4] and 23 nM in assay [5].

B4: 219R0202-21M18 single gene bispecific antibody (SGBSP) (bispecific antibody, human IgG2, kappa)
chain 1: DIQLTQSPSSLSASVGDRVTITCRASQGINNHLAWYQQKPGKVPKSLIYAASNLHSGVPSKFSGSGSGTHFTLIISSLQPEDIATYYCQQYDNLPLTFGGGTKVEIKRTVAAPSVFIFPPSDEQLKSGTASVVCLLNNFYPREAKVQWKVDNALQSGNSQESVTEQDSKDSTYSLSSTLTLSKADYEKHKVYACEVTHQGLSSPVTKSFNRGECGGGGGSGGGGSGGGGSGGGGSGGGGSGGGGSQVQLKQSGAELVKPGASVKLSCKASGYTFTNYWMHWVKLRPGQGFEWIGDINPSNGGTSYNEKFKRKATLTVDKSSSTAYMQLSSLTSEDSAVYYCTIHYYDNSYAMDYWGQGTSVTVSSASTKGPSVFPLAPCSRSTSESTAALGCLVKDYFPEPVTVSWNSGALTSGVHTFPAVLQSSGLYSLSSVVTVPSSNFGTQTYTCNVDHKPSNTKVDKTVERKCCVECPPCPAPPVAGPSVFLFPPKPKDTLMISRTPEVTCVVVDVSHEDPEVQFNWYVDGVEVHNAKTKPREEQFNSTFRVVSVLTVVHQDWLNGKEYKCKVSNKGLPAPIEKTISKTKGQPREPQVYTLPPSREKMTKNQVSLTCLVKGFYPSDIAVEWESNGQPENNYKTTPPMLKSDGSFFLYSKLTVDKSRWQQGNVFSCSVMHEALHNHYTQKSLSLSPGK
chain 2: DIVMTQSPDSLAVSLGERATISCRASESVDNYGISFMKWFQQKPGQPPKLLIYAASNQGSGVPDRFSGSGSGTDFTLTISSLQAEDVAVYYCQQSKEVPWTFGGGTKVEIKRTVAAPSVFIFPPSDEQLKSGTASVVCLLNNFYPREAKVQWKVDNALQSGNSQESVTEQDSKDSTYSLSSTLTLSKADYEKHKVYACEVTHQGLSSPVTKSFNRGECGGGGSGGGGSGGGGSGGGGSGGGGSGGGGSQVQLVQSGAEVKKPGASVKISCKASGYSFTAYYIHWVKQAPGQGLEWIGYISSYNGATNYNQKFKGRVTFTTDTSTSTAYMELRSLRSDDTAVYYCARDYDYDVGMDYWGQGTLVTVSSASTKGPSVFPLAPCSRSTSESTAALGCLVKDYFPEPVTVSWNSGALTSGVHTFPAVLQSSGLYSLSSVVTVPSSNFGTQTYTCNVDHKPSNTKVDKTVERKCCVECPPCPAPPVAGPSVFLFPPKPKDTLMISRTPEVTCVVVDVSHEDPEVQFNWYVDGVEVHNAKTKPREEQFNSTFRVVSVLTVVHQDWLNGKEYKCKVSNKGLPAPIEKTISKTKGQPREPQVYTLPPSREEMTKNQVSLTCLVEGFYPSDIAVEWESNGQPENNYKTTPPMLDSDGSFFLYSELTVDKSRWQQGNVFSCSVMHEALHNHYTQKSLSLSPGK
notes: Heterodimer of two single-gene chains, anti-VEGF arm (13A) and anti-DLL4 arm (13B), IgG2; also called 219R0202_21M18 SGBSP; 219R0202-21M18 SGBSP
The EC50 is the midpoint of the concentration-response curve. Low readings indicate greater potency, high ones weaker potency. With B4, the affinity in assay [3], expressed as Kd, was 6.9 nM. Further, in assay [6], the “fold weaker binding affinity than 219R0202” value is around 5 fold. Also, in [7], the “fold loss in DLL4 binding activity compared to 21M18” value was around 5 fold. In assay [8], this molecule had an EC50 of 10.2 nM.

B5: 219R0302-21M18 single gene bispecific antibody (SGBSP) (bispecific antibody, human IgG2, kappa)
chain 1: not shown
chain 2: DIVMTQSPDSLAVSLGERATISCRASESVDNYGISFMKWFQQKPGQPPKLLIYAASNQGSGVPDRFSGSGSGTDFTLTISSLQAEDVAVYYCQQSKEVPWTFGGGTKVEIKRTVAAPSVFIFPPSDEQLKSGTASVVCLLNNFYPREAKVQWKVDNALQSGNSQESVTEQDSKDSTYSLSSTLTLSKADYEKHKVYACEVTHQGLSSPVTKSFNRGECGGGGSGGGGSGGGGSGGGGSGGGGSGGGGSQVQLVQSGAEVKKPGASVKISCKASGYSFTAYYIHWVKQAPGQGLEWIGYISSYNGATNYNQKFKGRVTFTTDTSTSTAYMELRSLRSDDTAVYYCARDYDYDVGMDYWGQGTLVTVSSASTKGPSVFPLAPCSRSTSESTAALGCLVKDYFPEPVTVSWNSGALTSGVHTFPAVLQSSGLYSLSSVVTVPSSNFGTQTYTCNVDHKPSNTKVDKTVERKCCVECPPCPAPPVAGPSVFLFPPKPKDTLMISRTPEVTCVVVDVSHEDPEVQFNWYVDGVEVHNAKTKPREEQFNSTFRVVSVLTVVHQDWLNGKEYKCKVSNKGLPAPIEKTISKTKGQPREPQVYTLPPSREEMTKNQVSLTCLVEGFYPSDIAVEWESNGQPENNYKTTPPMLDSDGSFFLYSELTVDKSRWQQGNVFSCSVMHEALHNHYTQKSLSLSPGK
notes: Heterodimer of two single-gene chains, anti-VEGF arm (13A) and anti-DLL4 arm (13B), IgG2; also called 219R0302_21M18 SGBSP; 219R0302-21M18 SGBSP
In assay [3], B5 displayed a Kd of 7.6 nM. The “fold weaker binding affinity than 219R0302” value in assay [9] is around 4 fold.

B6: 219R0202-21M18 monovalent bispecific antibody (MBSP) with common 21M18 light chain (bispecific antibody, human IgG2, kappa)
heavy 1: QVQLKQSGAELVKPGASVKLSCKASGYTFTNYWMHWVKLRPGQGFEWIGDINPSNGGTSYNEKFKRKATLTVDKSSSTAYMQLSSLTSEDSAVYYCTIHYYDNSYAMDYWGQGTSVTVSSASTKGPSVFPLAPCSRSTSESTAALGCLVKDYFPEPVTVSWNSGALTSGVHTFPAVLQSSGLYSLSSVVTVPSSNFGTQTYTCNVDHKPSNTKVDKTVERKCCVECPPCPAPPVAGPSVFLFPPKPKDTLMISRTPEVTCVVVDVSHEDPEVQFNWYVDGVEVHNAKTKPREEQFNSTFRVVSVLTVVHQDWLNGKEYKCKVSNKGLPAPIEKTISKTKGQPREPQVYTLPPSREKMTKNQVSLTCLVKGFYPSDIAVEWESNGQPENNYKTTPPMLKSDGSFFLYSKLTVDKSRWQQGNVFSCSVMHEALHNHYTQKSLSLSPGK
heavy 2: QVQLVQSGAEVKKPGASVKISCKASGYSFTAYYIHWVKQAPGQGLEWIGYISSYNGATNYNQKFKGRVTFTTDTSTSTAYMELRSLRSDDTAVYYCARDYDYDVGMDYWGQGTLVTVSSASTKGPSVFPLAPCSRSTSESTAALGCLVKDYFPEPVTVSWNSGALTSGVHTFPAVLQSSGLYSLSSVVTVPSSNFGTQTYTCNVDHKPSNTKVDKTVERKCCVECPPCPAPPVAGPSVFLFPPKPKDTLMISRTPEVTCVVVDVSHEDPEVQFNWYVDGVEVHNAKTKPREEQFNSTFRVVSVLTVVHQDWLNGKEYKCKVSNKGLPAPIEKTISKTKGQPREPQVYTLPPSREEMTKNQVSLTCLVEGFYPSDIAVEWESNGQPENNYKTTPPMLDSDGSFFLYSELTVDKSRWQQGNVFSCSVMHEALHNHYTQKSLSLSPGK
light: DIVMTQSPDSLAVSLGERATISCRASESVDNYGISFMKWFQQKPGQPPKLLIYAASNQGSGVPDRFSGSGSGTDFTLTISSLQAEDVAVYYCQQSKEVPWTFGGGTKVEIKRTVAAPSVFIFPPSDEQLKSGTASVVCLLNNFYPREAKVQWKVDNALQSGNSQESVTEQDSKDSTYSLSSTLTLSKADYEKHKVYACEVTHQGLSSPVTKSFNRGEC
notes: also called 219R0202_21M18 MBSP
In assay [3], B6 came in with a Kd of 21 nM. For the same molecule, the “fold weaker binding affinity than 219R0202” value in assay [6] was around 14 fold. Also, the “fold loss in DLL4 binding activity compared to 21M18” value in [7] was around 3 fold. The same molecule gave an EC50 in assay [8] of 6.2 nM.
